Measurements from CN116710484A (MYLINGENE INC, dated 2023).

What was measured:
[1] = molecular target: T1, human recombinant WARS1 protein (tryptophanyl-tRNA synthetase 1) (human, UniProt P23381 1-471, limits assumed); experiment: SPR, Biacore T200, CM5 chip
T1 construct: Recombinant protein; also called 人WARS1; 人重组蛋白
T1 sequence (looked up): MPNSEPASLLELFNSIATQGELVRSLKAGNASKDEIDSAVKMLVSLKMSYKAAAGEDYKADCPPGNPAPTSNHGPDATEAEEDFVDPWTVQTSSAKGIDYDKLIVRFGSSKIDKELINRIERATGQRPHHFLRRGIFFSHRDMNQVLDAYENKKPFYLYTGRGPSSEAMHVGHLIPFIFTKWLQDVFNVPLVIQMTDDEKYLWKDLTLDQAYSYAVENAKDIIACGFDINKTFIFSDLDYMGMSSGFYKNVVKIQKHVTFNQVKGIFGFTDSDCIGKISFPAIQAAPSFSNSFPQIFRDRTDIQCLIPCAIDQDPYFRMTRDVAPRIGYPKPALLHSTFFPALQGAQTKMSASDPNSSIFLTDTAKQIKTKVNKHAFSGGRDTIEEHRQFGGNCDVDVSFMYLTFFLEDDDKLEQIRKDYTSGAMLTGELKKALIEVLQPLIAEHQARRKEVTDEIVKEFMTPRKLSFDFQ

[2] = molecular target: T2, mouse recombinant WARS1 protein (mouse, UniProt P32921 1-481, limits assumed); experiment: SPR, Biacore T200, CM5 chip
T2 construct: Recombinant protein; also called 小鼠WARS1; 小鼠重组蛋白
T2 sequence (looked up): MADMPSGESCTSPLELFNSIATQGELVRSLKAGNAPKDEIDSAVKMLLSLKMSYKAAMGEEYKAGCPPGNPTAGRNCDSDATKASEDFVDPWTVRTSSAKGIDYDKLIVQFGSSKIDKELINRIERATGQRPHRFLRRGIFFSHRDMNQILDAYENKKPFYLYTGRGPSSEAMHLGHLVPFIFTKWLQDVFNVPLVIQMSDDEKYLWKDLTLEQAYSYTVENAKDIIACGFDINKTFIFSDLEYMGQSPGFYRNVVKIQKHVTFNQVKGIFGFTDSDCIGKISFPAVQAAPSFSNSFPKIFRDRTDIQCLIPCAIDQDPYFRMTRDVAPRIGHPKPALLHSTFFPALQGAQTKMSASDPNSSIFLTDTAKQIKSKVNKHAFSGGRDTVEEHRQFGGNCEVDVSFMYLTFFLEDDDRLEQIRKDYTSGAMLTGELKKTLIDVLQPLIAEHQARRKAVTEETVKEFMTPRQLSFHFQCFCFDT

Kd [1]: ~0.2 nM
Kd [2]: ~3.76 nM
B1: GKB101 (antibody, V domains shown)
VH: EVQLLESGGGLVQPGGSLRLSCAASGFTFSSYDMSWVRQAPGKGLEWVSAISSGGSSIYYADSVKGRFTISRDNSKNTLYLQMNSLRAEDTAVYYCARDVAWDMLGDFDYWGQGTLVTVSS
VL: QSVLTQPPSASGTPGQRVTISCTGSSSNIGSNYVYWYQQLPGTAPKLLIYANSHRPSGVPDRFSGSKSGTSASLAISGLRSEDEADYYCGAWDDSLSAYVFGGGTKLTV
notes: also called WARS1特异性抗体; 抗WARS1抗体
